Measurements: publication PMC2173804

B1: mut2 (dsDNA)
DNA 1: CTAGGCAAGGTAAGTTCTCCT
DNA 2: CTAGAGGAGAACTTACCTTGC
B2: bim1 (dsDNA)
DNA 1: CTAGCTAGGGTAAACACGCCG
DNA 2: CTAGCGGCGTGTTTACCCTAG
B3: mut1 (dsDNA)
DNA 1: CTAGCTAGGGTACCCACGCCG
DNA 2: CTAGCGGCGTGGGTACCCTAG
B4: FasL (dsDNA)
DNA 1: CTAGAATAAGTAAATAAATAA
DNA 2: CTAGTTATTTATTTACTTATT
B5: bim2 (dsDNA)
DNA 1: CTAGGCAAGGTAAACACTCCT
DNA 2: CTAGAGGAGTGTTTACCTTGC

Target: GST-FKH (FKHRL1/FOXO3a DNA-binding domain) (UniProt O43524 141-268, S253A)
Assay: EMSA

Sequence of GST-FKH (FKHRL1/FOXO3a DNA-binding domain) (O43524 141-268 S253A): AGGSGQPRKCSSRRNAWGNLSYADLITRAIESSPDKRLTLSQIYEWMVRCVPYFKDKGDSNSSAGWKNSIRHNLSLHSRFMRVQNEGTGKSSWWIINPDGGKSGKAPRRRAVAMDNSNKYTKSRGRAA

Binder	binding result
B1	no binding
B2	binds
B3	no binding
B4	binds
B5	binds
